Starred links: 1 amine or outer side, 2 acyl side, 3 side chain; linkers in the order of their positions; H or OH if unused. Non-standard residues stand in square brackets, D forms with d. Groups on a side chain read outwards from the residue. No end group written: not given here. *: point of attachment. 2OEGgE = O=C(CC[C@H](N[*:1])C(=O)O)NCCOCCOCC(=O)NCCOCCOCC(=O)[*:2]; G2E3 = linker of 2 Gly and 3 Glu (read GGEEE); C16 diacid = O=C(O)CCCCCCCCCCCCCCC(=O)*; C15 diacid = O=C(O)CCCCCCCCCCCCCC(=O)*; γGlu = O=C(O)[C@H](CCC(=O)[*:2])N[*:1]; NMeY = CN[C@@H](Cc1ccc(O)cc1)C(=O)O; AEEA = NCCOCCOCC(=O)O; Aib = CC(C)(N)C(=O)O
T1: full-length human GIPR with an N-terminal FLAG tag (human, UniProt P48546 22-466)
T1 sequence (looked up): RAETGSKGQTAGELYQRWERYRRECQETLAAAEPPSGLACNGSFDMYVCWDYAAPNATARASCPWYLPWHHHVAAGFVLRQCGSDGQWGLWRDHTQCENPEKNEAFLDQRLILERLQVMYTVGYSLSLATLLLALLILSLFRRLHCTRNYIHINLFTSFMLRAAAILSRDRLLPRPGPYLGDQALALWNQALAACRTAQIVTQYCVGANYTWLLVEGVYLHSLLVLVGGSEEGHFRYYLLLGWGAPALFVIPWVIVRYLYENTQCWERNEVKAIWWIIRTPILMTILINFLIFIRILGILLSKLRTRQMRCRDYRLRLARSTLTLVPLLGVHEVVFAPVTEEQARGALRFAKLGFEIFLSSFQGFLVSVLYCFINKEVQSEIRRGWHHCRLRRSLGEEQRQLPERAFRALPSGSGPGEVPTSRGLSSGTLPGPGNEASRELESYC

B1: Compound 76 (peptide)
peptide: [NMeY][Aib]EGTFISDYSIALDR[Aib]K([AEEA-AEEA-γGlu-C15 diacid])Q[Aib]DFVNWLLAQSPSSGAPPPS-NH2
modifications: N-terminus assumed
SMILES: CC[C@H](C)[C@H](NC(=O)[C@H](CO)NC(=O)[C@H](Cc1ccc(O)cc1)NC(=O)[C@H](CC(=O)O)NC(=O)[C@H](CO)NC(=O)[C@@H](NC(=O)[C@H](Cc1ccccc1)NC(=O)[C@@H](NC(=O)CNC(=O)[C@H](CCC(=O)O)NC(=O)C(C)(C)NC(=O)[C@H](Cc1ccc(O)cc1)NC)[C@@H](C)O)[C@@H](C)CC)C(=O)N[C@@H](C)C(=O)N[C@@H](CC(C)C)C(=O)N[C@@H](CC(=O)O)C(=O)N[C@@H](CCCNC(=N)N)C(=O)NC(C)(C)C(=O)N[C@@H](CCCCNC(=O)COCCOCCNC(=O)COCCOCCNC(=O)CC[C@H](NC(=O)CCCCCCCCCCCCCC(=O)O)C(=O)O)C(=O)N[C@@H](CCC(N)=O)C(=O)NC(C)(C)C(=O)N[C@@H](CC(=O)O)C(=O)N[C@@H](Cc1ccccc1)C(=O)N[C@H](C(=O)N[C@@H](CC(N)=O)C(=O)N[C@@H](Cc1c[nH]c2ccccc12)C(=O)N[C@@H](CC(C)C)C(=O)N[C@@H](CC(C)C)C(=O)N[C@@H](C)C(=O)N[C@@H](CCC(N)=O)C(=O)N[C@@H](CO)C(=O)N1CCC[C@H]1C(=O)N[C@@H](CO)C(=O)N[C@@H](CO)C(=O)NCC(=O)N[C@@H](C)C(=O)N1CCC[C@H]1C(=O)N1CCC[C@H]1C(=O)N1CCC[C@H]1C(=O)N[C@@H](CO)C(N)=O)C(C)C
B2: Compound 75 (peptide)
peptide: [NMeY][Aib]EGTFISDYSIALDR[Aib]K([2OEGgE-C15 diacid])Q[Aib]DFVNWLLAQRPSSGAPPPS-NH2
modifications: N-terminus assumed
SMILES: CC[C@H](C)[C@H](NC(=O)[C@H](CO)NC(=O)[C@H](Cc1ccc(O)cc1)NC(=O)[C@H](CC(=O)O)NC(=O)[C@H](CO)NC(=O)[C@@H](NC(=O)[C@H](Cc1ccccc1)NC(=O)[C@@H](NC(=O)CNC(=O)[C@H](CCC(=O)O)NC(=O)C(C)(C)NC(=O)[C@H](Cc1ccc(O)cc1)NC)[C@@H](C)O)[C@@H](C)CC)C(=O)N[C@@H](C)C(=O)N[C@@H](CC(C)C)C(=O)N[C@@H](CC(=O)O)C(=O)N[C@@H](CCCNC(=N)N)C(=O)NC(C)(C)C(=O)N[C@@H](CCCCNC(=O)COCCOCCNC(=O)COCCOCCNC(=O)CC[C@H](NC(=O)CCCCCCCCCCCCCC(=O)O)C(=O)O)C(=O)N[C@@H](CCC(N)=O)C(=O)NC(C)(C)C(=O)N[C@@H](CC(=O)O)C(=O)N[C@@H](Cc1ccccc1)C(=O)N[C@H](C(=O)N[C@@H](CC(N)=O)C(=O)N[C@@H](Cc1c[nH]c2ccccc12)C(=O)N[C@@H](CC(C)C)C(=O)N[C@@H](CC(C)C)C(=O)N[C@@H](C)C(=O)N[C@@H](CCC(N)=O)C(=O)N[C@@H](CCCNC(=N)N)C(=O)N1CCC[C@H]1C(=O)N[C@@H](CO)C(=O)N[C@@H](CO)C(=O)NCC(=O)N[C@@H](C)C(=O)N1CCC[C@H]1C(=O)N1CCC[C@H]1C(=O)N1CCC[C@H]1C(=O)N[C@@H](CO)C(N)=O)C(C)C
B3: Compound 68 (peptide)
peptide: YXEGTFISDYSIALDRXHQXDFVNWLLAQSPSSGAPPPS
modifications: not fully specified; Me-Tyr1; Aib 2,20; Km17 = Lys(linker printed 'GS'-C15DA); C-term NH2

Tests used:
[1] = molecular target: T1, full-length human GIPR with an …; assay: cell-based or functional assay
[2] = molecular target: full-length human GLP-1R with an N-terminal FLAG tag (human, UniProt P43220 24-463); assay: cell-based or functional assay

Binder	Human GIPR cAMP, HEK293T EC50 [1]	Human GLP1R cAMP HEK293T EC50 [2]
[NMeY][Aib]EGTFISDYSIALDRKHQ[Aib]NFVNWLLAQSPSSGAPPPS-NH2 (not fully specified (residue 17)) [Compound 64]	0.0005 nM	1000 nM
[NMeY][Aib]EGTFISDYSIAK([G5-γGlu-γGlu-C15 diacid])DR[Aib]AQ[Aib]NFVNWLLAQSPSSGAPPPS-NH2 [Compound 81]	0.0002 nM	1000 nM
[NMeY][Aib]EGTFISDYSIALDRKHQ[Aib]NFVNWLLAQSPSSGAPPPS-NH2 (not fully specified (residue 17)) [Compound 65]	0.0003 nM	129 nM
B1	0.0005 nM	295 nM
B2	0.0011 nM	1000 nM
[NMeY]GEGTFISDYSIAK([2OEGgE-C16 diacid])DRIHQ[Aib]NFVNWLLAQK (not fully specified) [Compound 6]	0.0537 nM	692 nM
[NMeY][Aib]EGTFISDYSIALDR[Aib]K([G5gE-C15 diacid])Q[Aib]DFVNWLLAQSPSSGAPPPS-NH2 [Compound 74]	0.0004 nM	550 nM
Y[Aib]EGTFISDYSI[Aib]KDR[Aib]AQ[Aib]NFVNWLLAQRPSSGAPPPS-OH (not fully specified (residues 1, 14)) [Compound 56]	0.0003 nM	263 nM
[NMeY][Aib]EGTFISDYSIAK([G4-γGlu-C15 diacid])DR[Aib]AQ[Aib]NFVNWLLAQSPSSGAPPPS-NH2 [Compound 78]	0.0003 nM	112 nM
[NMeY][Aib]EGTFISDYSIAK([G5-γGlu-C15 diacid])DR[Aib]AQ[Aib]NFVNWLLAQSPSSGAPPPS-NH2 [Compound 82]	0.0003 nM	295 nM
[NMeY][Aib]EGTFISDYSIALDR[Aib]AQ[Aib]NFVNWLLAQK([OEGgEgE-C15 diacid])PSSGAPPPS-NH2 [Compound 70]	0.0009 nM	91.2 nM
[NMeY][Aib]EGTFISDYSIAK([G5-γGlu-C15 diacid])DR[Aib]AQ[Aib]DFVNWLLAQRPSSGAPPPS-NH2 [Compound 80]	0.0004 nM	468 nM
[NMeY]SEGTFISDYSIAK([2OEG-γGlu-C16 diacid])DRIHQ[Aib]NFVNWLLAQK (not fully specified (N-terminus)) [Compound 7]	0.0016 nM	257 nM
[NMeY][Aib]EGTFISDYSIAKDR[Aib]AQ[Aib]NFVNWLLAQRPSSGAPPPS-NH2 (not fully specified (residue 14)) [Compound 77]	0.0002 nM	331 nM
YXEGTFISDYSIALDRXHQXDFVNWLLAQRPSSGAPPPS (not fully specified; Me-Tyr1; Aib 2,20; Km17 = Lys(gEgE-C15DA); C-term NH2) [Compound 66]	0.0004 nM	1000 nM
B3	0.0007 nM	200 nM
YXEGTFISDYSIALDRXHQXDFVNWLLAQSPSSGAPPPS (not fully specified; Me-Tyr1; Aib 2,20; Km17 = Lys(gE-C15DA); C-term NH2) [Compound 69]	0.0004 nM	1000 nM
YXEGTFISDYSIALDRXHQXDFVNWLLAQRPSSGAPPPS (not fully specified; Me-Tyr1; Aib 2,20; Km17 = Lys(gE-C15DA); C-term NH2) [Compound 67]	0.0006 nM	525 nM
[NMeY][Aib]EGTFISDYSIALDRKHQ[Aib]NFVNWLLAQRPSSGAPPPS-NH2 (not fully specified (residue 17)) [Compound 63]	0.0002 nM	141 nM
[NMeY][Aib]EGTFISDYSIALDR[Aib]K([G2E3-C15 diacid])Q[Aib]NFVNWLLAQSPSSGAPPPS-OH (not fully specified) [Compound 55]	0.0002 nM	240 nM
[NMeY][Aib]EGTFISDYSIALDR[Aib]K([G5gE-C15 diacid])Q[Aib]DFVNWLLAQRPSSGAPPPS-NH2 [Compound 73]	0.0005 nM	1000 nM
[NMeY][Aib]EGTFISDYSIALDR[Aib]K([G5gE-C15 diacid])Q[Aib]NFVNWLLAQSPSSGAPPPS-NH2 [Compound 71]	0.0006 nM	955 nM
[NMeY][Aib]EGTFISDYSIALDRIHQK([AEEA-AEEA-γGlu-C15 diacid])NFVNWLLAQK (also: Me-Tyr methyl position not given here) [Compound 5]	0.0008 nM	955 nM
